# Data reported in US20250002610A1 (Genmab, published 2025).
# Columns and labels:
# [1] = molecular target: T1, cynomolgus monkey FAPα on Expi293F cells (cynomolgus monkey (Macaca fascicularis), UniProt Q12884 1-760 (human entry)); test: flow cytometry, Expi293F cells expressing cynomolgus monkey FAPα, n = 1
# T1 sequence: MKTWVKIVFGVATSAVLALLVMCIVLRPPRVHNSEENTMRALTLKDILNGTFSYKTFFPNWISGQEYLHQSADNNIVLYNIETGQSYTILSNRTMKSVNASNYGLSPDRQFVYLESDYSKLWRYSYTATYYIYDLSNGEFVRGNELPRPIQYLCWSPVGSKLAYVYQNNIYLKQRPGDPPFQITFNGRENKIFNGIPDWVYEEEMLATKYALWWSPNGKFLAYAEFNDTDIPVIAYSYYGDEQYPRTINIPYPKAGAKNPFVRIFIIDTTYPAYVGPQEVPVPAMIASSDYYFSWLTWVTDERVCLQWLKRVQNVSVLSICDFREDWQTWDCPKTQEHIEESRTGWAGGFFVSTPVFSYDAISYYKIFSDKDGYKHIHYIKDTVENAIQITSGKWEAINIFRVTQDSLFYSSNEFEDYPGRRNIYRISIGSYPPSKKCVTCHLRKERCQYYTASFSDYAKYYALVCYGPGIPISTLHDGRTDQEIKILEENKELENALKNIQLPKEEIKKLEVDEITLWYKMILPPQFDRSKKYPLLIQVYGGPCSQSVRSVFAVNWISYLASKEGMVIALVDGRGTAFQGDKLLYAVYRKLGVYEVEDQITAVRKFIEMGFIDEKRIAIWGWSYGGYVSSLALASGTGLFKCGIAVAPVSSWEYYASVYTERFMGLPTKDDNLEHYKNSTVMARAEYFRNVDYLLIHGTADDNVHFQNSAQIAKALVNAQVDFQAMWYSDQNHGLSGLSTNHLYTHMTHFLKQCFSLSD
# Protocol: (§1) Binding of BisG1-FAPα-FERL/DR4-FERR, BisG1-FAPα-FEAL/b12-FEAR and IgG1-FAPα-FERL to FAPα of species commonly used for nonclinical toxicology studies was assessed by flow cytometry using Expi293F cells transiently expressing FAPα from different animal species. IgG1-b12 was included as negative control.
# (§2) Expi293F cells expressing recombinant FAPα from various species (human, cynomolgus monkey, dog, pig, rat or mouse) were seeded (20,000 cells/well) in 96-Well round bottom plates (Greiner Bio-one, Cat #650101). Antibody dilutions were prepared using FACS buffer, consisting of PBS (Capricorn Scientific, Cat #PBS-10XA, diluted to 1×PBS in distilled water)+1% BSA (Roche, Cat #10735086001)+0.02% Sodium Azide (Bio-World, Cat #41920044-3). Plates were centrifuged, supernatant was removed, and cells were resuspended in 100 μL of antibody dilutions (concentration range 30-0.00017 μg/mL with three-fold serial dilutions using FACS buffer) of BisG1-FAPα-FERL/DR4-FERR, BisG1-FAPα-FEAL/b12-FEAR, IgG1-FAPα-FERL and IgG1-b12 and incubated for 30 min at 4° C. […] After 30 min incubation at 4° C., cells were washed with FACS buffer and resuspended in FACS buffer supplemented with TO-PRO-3 Iodide viability marker (Invitrogen, Cat #T3605, diluted 1:4,000). Antibody binding to viable cells (gMFI of PE on TO-PRO-3 negative cells) was analyzed by flow cytometry on a FACS Celesta and FACS_Diva software (first two experiments) or iQue® 3 and FlowJo software (last experiment). gMFI was determined and visualized using GraphPad Prism. Binding curves were analyzed using nonlinear regression analysis. The concentration (pg/mL) at which 50% of the maximal effect was observed (EC₅₀) was derived from the fitted curves.
# [2] = molecular target: T1, cynomolgus monkey FAPα on Expi293F cells; test: flow cytometry, Expi293F cells expressing cynomolgus monkey FAPα, n = 2
# Protocol: as §1, §2
Binder,EC50 [1],EC50 [2]
"BisG1-FAPα-FEAL/b12-FEAR (bispecific antibody, human IgG1, kappa, Fab-arm exchange of IgG1-FAPα-FEAL and IgG1-b12-FEAR) heavy 1: EVQLLESGGGLVQPGGSPRLSCEASGFTFSSYALSWVRQAPGKGLEWVSAISGSGGGRYYADSVKGRFTISRDNSKNTLFLQMNSLRAEDTAVYYCAKEGYSSSGTYWDHWGQGTLVTVSSASTKGPSVFPLAPSSKSTSGGTAALGCLVKDYFPEPVTVSWNSGALTSGVHTFPAVLQSSGLYSLSSVVTVPSSSLGTQTYICNVNHKPSNTKVDKRVEPKSCDKTHTCPPCPAPEFEGGPSVFLFPPKPKDTLMISRTPEVTCVVVAVSHEDPEVKFNWYVDGVEVHNAKTKPREEQYNSTYRVVSVLTVLHQDWLNGKEYKCKVSNKALPAPIEKTISKAKGQPREPQVYTLPPSREEMTKNQVSLTCLVKGFYPSDIAVEWESNGQPENNYKTTPPVLDSDGSFLLYSKLTVDKSRWQQGNVFSCSVMHEALHNHYTQKSLSLSPG light 1: AIQMTQSPSSVSASVGDRVTITCRASQGVSSWLAWYQQKPGRAPKLLIYVASTLQSGVPSRFSGSGSGTDFTLTINSLQPEDFATYYCQQANSFPPTFGQGTRLEMKRTVAAPSVFIFPPSDEQLKSGTASVVCLLNNFYPREAKVQWKVDNALQSGNSQESVTEQDSKDSTYSLSSTLTLSKADYEKHKVYACEVTHQGLSSPVTKSFNRGEC heavy 2: QVQLVQSGAEVKKPGASVKVSCQASGYRFSNFVIHWVRQAPGQRFEWMGWINPYNGNKEFSAKFQDRVTFTADTSANTAYMELRSLRSADTAVYYCARVGPYSWDDSPQDNYYMDVWGKGTTVIVSSASTKGPSVFPLAPSSKSTSGGTAALGCLVKDYFPEPVTVSWNSGALTSGVHTFPAVLQSSGLYSLSSVVTVPSSSLGTQTYICNVNHKPSNTKVDKRVEPKSCDKTHTCPPCPAPEFEGGPSVFLFPPKPKDTLMISRTPEVTCVVVAVSHEDPEVKFNWYVDGVEVHNAKTKPREEQYNSTYRVVSVLTVLHQDWLNGKEYKCKVSNKALPAPIEKTISKAKGQPREPQVYTLPPSREEMTKNQVSLTCLVKGFYPSDIAVEWESNGQPENNYKTTPPVLDSDGSFFLYSRLTVDKSRWQQGNVFSCSVMHEALHNHYTQKSLSLSPG light 2: EIVLTQSPGTLSLSPGERATFSCRSSHSIRSRRVAWYQHKPGQAPRLVIHGVSNRASGISDRFSGSGSGTDFTLTITRVEPEDFALYYCQVYGASSYTFGQGTKLERKRTVAAPSVFIFPPSDEQLKSGTASVVCLLNNFYPREAKVQWKVDNALQSGNSQESVTEQDSKDSTYSLSSTLTLSKADYEKHKVYACEVTHQGLSSPVTKSFNRGEC",0.05 µg/mL,0.16 µg/mL
"IgG1-FAPα-FERL (antibody, Bivalent monoclonal IgG1 kappa) heavy: EVQLLESGGGLVQPGGSPRLSCEASGFTFSSYALSWVRQAPGKGLEWVSAISGSGGGRYYADSVKGRFTISRDNSKNTLFLQMNSLRAEDTAVYYCAKEGYSSSGTYWDHWGQGTLVTVSSASTKGPSVFPLAPSSKSTSGGTAALGCLVKDYFPEPVTVSWNSGALTSGVHTFPAVLQSSGLYSLSSVVTVPSSSLGTQTYICNVNHKPSNTKVDKRVEPKSCDKTHTCPPCPAPEFERGPSVFLFPPKPKDTLMISRTPEVTCVVVDVSHEDPEVKFNWYVDGVEVHNAKTKPREEQYNSTYRVVSVLTVLHQDWLNGKEYKCKVSNKALPAPIEKTISKAKGQPREPQVYTLPPSREEMTKNQVSLTCLVKGFYPSDIAVEWESNGQPENNYKTTPPVLDSDGSFLLYSKLTVDKSRWQQGNVFSCSVMHEALHNHYTQKSLSLSPG light: AIQMTQSPSSVSASVGDRVTITCRASQGVSSWLAWYQQKPGRAPKLLIYVASTLQSGVPSRFSGSGSGTDFTLTINSLQPEDFATYYCQQANSFPPTFGQGTRLEMKRTVAAPSVFIFPPSDEQLKSGTASVVCLLNNFYPREAKVQWKVDNALQSGNSQESVTEQDSKDSTYSLSSTLTLSKADYEKHKVYACEVTHQGLSSPVTKSFNRGEC",0.03 µg/mL,0.11 µg/mL
